Consider twelve molecules from article doi:10.1101/2021.12.26.474192 (bioRxiv, 2021).

In assay [1] the target is T1, SARS-CoV-2 receptor-binding domain (RBD), S protein residues 319-539 (SARS-CoV-2, GenBank MN985325.1 …, UniProt P0DTC2). Nature of the assay: ELISA. (In general: ELISA stands for enzyme-linked immunosorbent assay.)
Assay [2] deals with T2, SARS-CoV RBD, residues 318-510 (SARS-CoV (GenBank AAP13441.1), UniProt P59594). Nature of the assay: ELISA.
The target in assay [3] is SARS-CoV-2 spike receptor-binding domain (RBD) used in the crystallographic study (SARS-CoV-2, UniProt P0DTC2). Nature of the assay: crystal structure.
For assay [4], the target named is Rf1-CoV RBD, residues 310-515 (Bat SARS CoV Rf1/2004, UniProt Q0QDZ0, strain). Nature of the assay: ELISA.
Assay [5] concerns the target pangolin17-CoV RBD, residues 317-539 (Pangolin coronavirus (pangolin17), strain). Briefly: ELISA.
Assay [6] addresses YN2013-CoV RBD, residues 314-496 (BtRs-BetaCoV/YN2013, UniProt A0A0U1WJY8, strain). Briefly: ELISA.
The target in assay [7] is W1V1-CoV RBD, residues 307-528 (Bat SARS-like coronavirus WIV1 (printed …, UniProt U5WI05)). Briefly: ELISA.
The target of assay [8] is Rs7327-CoV RBD, residues 319-518 (Bat SARS-like coronavirus Rs7327, UniProt A0A2D1PXC0, strain). Nature of the assay: ELISA.
Assay [9] deals with Yun11-CoV RBD, residues 310-515 (Bat coronavirus Cp/Yunnan2011, UniProt R9QTH3). Nature of the assay: ELISA.
Assay [10] has as its target T3, BM-4831-CoV RBD, residues 310-530 (Bat coronavirus BM48-31/BGR/2008, strain). Briefly: ELISA.
The target in assay [11] is Shaanxi2011-CoV RBD, residues 321-502 (Bat coronavirus Rp/Shaanxi2011, UniProt R9QTA0, strain). Nature of the assay: ELISA.
For assay [12], the target named is HKU3-1-CoV RBD, residues 322-505 (Bat coronavirus HKU3, isolate HKU3-1, UniProt Q3LZX1, strain). Briefly: ELISA.
The target of assay [13] is Rs4092-CoV RBD, residues 314-496 (Bat SARS-like coronavirus Rs4092, UniProt A0A2D1PX37, strain). Briefly: ELISA.
In assay [14] the target is ZC45-CoV RBD, residues 327-509 (Bat SARS-like coronavirus ZC45, UniProt A0A2R3SUW7, strain). Nature of the assay: ELISA.
For assay [15], the target named is RaTG13-CoV RBD, residues 319-541 (Bat coronavirus RaTG13, UniProt A0ABF7PLN6, strain). Briefly: ELISA.
For assay [16], the target named is BtkY72-CoV RBD, residues 309-530 (Bat sarbecovirus BtKY72, UniProt A0A3Q8AKM0). Nature of the assay: ELISA.
For assay [17], the target named is Rs4081-CoV RBD, residues 310-515 (Bat SARS-like coronavirus Rs4081, UniProt A0A2D1PX44, strain). Nature of the assay: ELISA.
The target in assay [18] is Rp3-CoV RBD, residues 322-504 (Bat coronavirus Rp3/2004, UniProt Q3I5J5). Nature of the assay: ELISA.
Assay [19] concerns the target SHC014-CoV RBD, residues 307-524 (Bat SARS-like coronavirus RsSHC014, UniProt U5WLK5, strain). Nature of the assay: ELISA.
The target in assay [20] is T1, SARS-CoV-2 receptor-binding domain …. Nature of the assay: cryo-EM structure.
The target is the same in assay [21]. Briefly: SPR.
Assay [22] deals with T2, SARS-CoV RBD, residues 318-510. Briefly: SPR. Background: Surface plasmon resonance follows binding to a sensor surface in real time, without labels.
The target of assay [23] is T3, BM-4831-CoV RBD, residues 310-530. Nature of the assay: SPR.

B1: psNb 1-21 (VHH)
VHH: HVQLVESGGGLVQAGGSLRLSCAAPGRTFSTSAMGWFRQAPGKEREFVAAIDWSNTNIHYADTVKGRFTISTDTAKNTVYLQMNNLKPEDTAVYYCAQGGWGLTQPISVDYWGKGTQVTVSS
For B1, the binding result in assay [1], in [2] and in [3] was “binds” each time.

B2: psNb 2-34 (VHH)
VHH: HVQLVESGGGLVQAGGSLRLSCAASGRTFSRYAAGWFRQAPGKEREFVAVIEWDGDSAYYADPVKGRFTISRDNAKNTVYLQMNRLKPEDTAVYICAVGGNHYSRSKYYNLDEYDDWGQGTQVTVSS
Regarding B2, the binding result in [4], in [1], in assay [5], in assay [6], in assay [7] and in assay [8] was “binds” throughout. Besides, the binding result in assay [2], in assay [9], in assay [10], in assay [11], in [12] and in [13] was “binds” each time. The binding result in assay [14], in [15], in assay [16], in [17], in assay [18] and in [19] was “binds” in each case.

B3: psNb 2-65 (VHH)
VHH: HVQLVESGGGLVQAGGSLRLSCAASGTISTLNAMGWYRQAPGKQRELLASISNLGTTYHADSVAGRFTISRGSAKNTVNLQMNSLKPDDTAVYYCNTRVLEGGTQIRDYWGQGTQVTVSS
In the case of B3, the binding result in assay [1] and in assay [10] was “binds” throughout.

B4: psNb 1-22 (VHH)
VHH: HVQLVESGGGLVQPGGSLRLSCAASGRSFNSYLMGWFRQAPGKEREFVAWISGSPHDIIRYRDSVKDRFTISRDNAKNTVYLQMNSLKPVDTAVYYCAVGSLRVGSFSPDYWGQGTQVTVSS
Regarding B4, the binding result in assay [1], in [2] and in assay [10] was “binds” in each case.

B5: psNb 2-67 (VHH)
VHH: EVQLVESGGGLVQTGGSLRLSCALSGYTFSIFPTAWFRQAPGKEREFVAGIRWNGSTRDYTEYADFVKGRFTISRDNAKNMVYLQMISLKPEDTALYYCAASDGVIDGTNANAYRYWGQGTQVTVSS
As for B5, the binding result in assay [20] is recorded as “binds”.

B6: psNb 2-31 (VHH)
VHH: QVQLVESGGGLVQAGESLRLSCAASKPTFRNFAAGWFRQTPGKDREFVAVIEYDGDSAYYADSVKGRFTISRDNAKNTVYLQMNRLKPGDTAVYICAIGGNHYDPSKYYTADEYDYWGQGTQVTVSS
The term Kd denotes the equilibrium constant for the complex coming apart. Low values mean a tighter complex, high ones a looser complex. For the molecule B6, the binding result in assay [4], in assay [5], in [6], in [7], in assay [8] and in assay [9] was “binds” in each case. Besides, the binding result in [11], in [12], in assay [13], in assay [14], in assay [15] and in assay [16] was “binds” throughout. For the same molecule, the binding result in assay [17], in assay [18] and in assay [19] was “binds” throughout. The Kd is below 0.001 nM in assay [21], 0.00396 nM in assay [22] and 3.6 nM in assay [23].

B7: psNb 1-23 (VHH)
VHH: QVQLVESGGGLVQAGGSLRLSCAASGRTDSISDMGWFRQAPGKEREFVAVVGWSGGGTDYAHSVKGRFTISRDNAKNTVYLQMNSLKPEDTAVYYCAVGSLRVGSFSVEYWGQGTQVTVSS
Take B7: the binding result in assay [1], in assay [2] and in [10] was “binds” each time.

B8: psNb 2-38 (VHH)
VHH: QVQLVESGGGLVQAGGSLRLSCAAAARFSTSAMGWFRQAPGKEREFVAAISWSNTNTHYADTVKGRFTISADTAKETVDLQMNSLKPEDTAVYYCVQGGWGIRQPIIVDYWGKGTQVTVSS
With B8, the binding result in assay [1], in assay [2] and in assay [10] was “binds” each time.

B9: psNb 2-62 (VHH)
VHH: QVQLVESGGGLVQAGGSLRLSCAASGRTFSTYAMAWFRQAPGKEREFVAGVARSADTTYYGDSVKGRFTISRDNAKNEVNLQMSSLKPEDTAVYYCAARSVIQYGIVPGNDFHYEYWGQGTQVTVSS
B9: the binding result in assay [20] was “binds”.

B10: psNb 2-10 (VHH)
VHH: QVQLVESGGGLVQPGGSLRLSCAASGFTFNRYAMSWVRQAPGKGREWVSGIYSDGSETYYTESVKGRFTISRDNAKNMLYLQMNSLKPEDTALYYCAKDENAHEDYFNSGFDRKYDYWGQGTQVTVSS
Regarding B10, the binding result in assay [20] was “binds”.

B11: psNb 2-45 (VHH)
VHH: QVQLVESGGGLVQAGGSLRLSCTASGYDFSILAIAWYRQAPGKERELVAAISRVGSTDYADSVKGRFTISRDNTKNTVSLQMDSLKPEDTAVYYCNAGIPMTTVLSGLGFWGQGTQVTVSS
Consider B11, for which the binding result in assay [4], in [5], in assay [6], in [7], in [8] and in assay [9] was “binds” throughout. Besides, the binding result in assay [11], in [12], in [13], in [14], in [15] and in assay [16] was “binds” in each case. Also, the binding result in assay [17], in assay [18] and in assay [19] was “binds” in each case. Also, the dissociation constant (Kd) turned out to be 0.39 nM in assay [21], 304 nM in assay [22] and 0.044 nM in assay [23].

B12: psNb 1-25 (VHH)
VHH: HVQLVESGGGLVQAGGSLRLSCATSGRTFSTYRMSWFRQAPGKEREFVATIIWSVGSTHYADSVKGRFTISRDNAKNMVYLQMNSLKPEDTAVYYCAAQRSDSSSWGYEDDYDYWGQGTQVTVSS
For B12, the binding result in assay [20] is “binds”.
